B1: Clone 2 (recombinant mAb, mouse variable regions on human IgG1) (antibody, V domains shown)
VH: EVQLQQSGPELVKPGASVKISCKASGYSFTGYSMNWMKQSPEKSLEWIGEINPSTGGTTDNQKFKAKATLTVDKSSSTAYMQLKSLTSEDSAVYYCARSRGDYWGQGTSVTVSS
VL: DIVLTQSPASLAVSLGQRATISCRASESVEYYGTSLMQWYQQKPGQPPKVLIYAASNVESGVPARFSGSGSGTDFSLNIHPVEEDDIAMYFCQQSRKVPWTFGGGTKLEIK
B2: Clone 6 (recombinant mAb, mouse variable regions on human IgG1) (antibody, V domains shown)
VH: QVQLQQSAAELARPGASVKMSCKASGYTFTSYTMHWVKQRPGQGLEWIGYINPTSGYTEYNQNFKDKTTLTADKSSSTAYMQLNSLTSEDSAVYYCAREGHRVGPAYWGQGTLVTVSA
VL: not shown

Biological target: SARS-CoV-2 RBD-his tag protein (SARS-CoV-2, ancestral (Wuhan-Hu-1/WA1), UniProt P0DTC2)
Experiment: ELISA

Binder | binding result
B1 | binds
B2 | binds

— PMC8722602 (bioRxiv, 2021)
